13 molecules from patent US20190092819A1 (published 2019) can be followed below.

The target in assay [1] is Desmoglein 2 (DSG2) on cells (human) (UniProt Q14126). As to the kind of experiment: cell-based or functional assay.
Assay [2] shares this target. The experiment in a line: competition: attachment of 3H-labelled Ad3 virus (competitor) to HeLa cells after pre-incubation with dimeric knob; scintillation counting.
The target in assay [3] is T1, Desmoglein 2 (DSG2) on cells (human, UniProt Q14126 50-1118).
T1 sequence (looked up): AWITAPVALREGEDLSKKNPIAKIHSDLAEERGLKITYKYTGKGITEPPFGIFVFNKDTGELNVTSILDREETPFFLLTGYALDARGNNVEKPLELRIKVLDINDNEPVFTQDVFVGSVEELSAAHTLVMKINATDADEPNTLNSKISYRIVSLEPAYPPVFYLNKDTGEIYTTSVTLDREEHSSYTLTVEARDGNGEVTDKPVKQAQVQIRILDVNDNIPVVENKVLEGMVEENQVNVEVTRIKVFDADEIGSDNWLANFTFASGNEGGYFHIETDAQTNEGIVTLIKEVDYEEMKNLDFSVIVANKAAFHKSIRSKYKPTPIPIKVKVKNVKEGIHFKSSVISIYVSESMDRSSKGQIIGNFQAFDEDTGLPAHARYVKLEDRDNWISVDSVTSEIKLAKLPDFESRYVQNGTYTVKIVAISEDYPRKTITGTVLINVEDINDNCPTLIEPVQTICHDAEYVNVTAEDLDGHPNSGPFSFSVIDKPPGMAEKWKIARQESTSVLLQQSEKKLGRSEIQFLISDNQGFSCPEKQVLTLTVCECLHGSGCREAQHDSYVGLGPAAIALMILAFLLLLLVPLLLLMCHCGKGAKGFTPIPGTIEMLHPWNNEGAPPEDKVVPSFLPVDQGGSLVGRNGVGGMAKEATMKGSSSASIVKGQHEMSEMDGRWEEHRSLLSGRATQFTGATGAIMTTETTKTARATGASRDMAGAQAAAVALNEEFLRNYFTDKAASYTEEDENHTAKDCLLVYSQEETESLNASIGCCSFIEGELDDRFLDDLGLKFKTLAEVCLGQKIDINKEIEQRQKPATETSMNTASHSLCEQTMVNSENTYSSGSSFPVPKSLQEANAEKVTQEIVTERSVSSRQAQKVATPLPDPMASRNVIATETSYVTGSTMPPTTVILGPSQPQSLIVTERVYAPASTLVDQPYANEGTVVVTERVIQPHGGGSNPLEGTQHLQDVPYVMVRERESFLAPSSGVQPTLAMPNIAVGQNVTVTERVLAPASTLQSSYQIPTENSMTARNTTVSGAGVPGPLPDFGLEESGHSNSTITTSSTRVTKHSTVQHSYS
The experiment in a line: cell-based or functional assay.

For assay [4], the target named is T1, Desmoglein 2 (DSG2) on cells. As to the kind of experiment: competition: attachment of 3H-labelled Ad3 virus (competitor) to HeLa cells after pre-incubation with dimeric knob; scintillation counting.
The target of assay [5] is Recombinant human DSG2 protein (desmoglein 2), soluble (human) (UniProt Q14126). As to the kind of experiment: Western blot of purified dimeric knob (trimer band) probed with soluble recombinant DSG2, anti-DSG2 mAb and anti-mouse IgG-HRP; bands quantified.
A further assay has as its target T2, soluble CD46 (UniProt P15529 35-343, limits assumed).
T2 construct: also called sCD46
T2 sequence (looked up): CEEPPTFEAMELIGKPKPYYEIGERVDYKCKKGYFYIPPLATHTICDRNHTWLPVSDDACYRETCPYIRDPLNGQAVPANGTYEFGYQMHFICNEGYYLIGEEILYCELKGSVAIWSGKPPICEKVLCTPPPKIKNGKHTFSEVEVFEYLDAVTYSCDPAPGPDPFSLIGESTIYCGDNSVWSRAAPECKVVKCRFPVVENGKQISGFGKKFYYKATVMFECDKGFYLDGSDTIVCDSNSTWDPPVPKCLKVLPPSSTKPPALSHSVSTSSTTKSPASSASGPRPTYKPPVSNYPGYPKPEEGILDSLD
As to the kind of experiment: Western blot probed with soluble CD46 and anti-CD46 mAb.

Consider “dimeric Ad3 fiber knob mutant N186D, D261N, L296R (ligand)”, for which the Inhibition of infection in the presence of dimeric knob (JO-1 = 100%) (% (JO-1 = 100%)) in assay [1] was 0. Besides, in assay [2], the Inhibition of attachment in the presence of dimeric knob (JO-1 = 100%) (% (JO-1 = 100%)) came out at 18.5.

B1: dimeric Ad3 fiber knob mutant D261N (ligand)
chain: MKVSALKEKVSALKEKVSALKEKVSALKEKVSALKEGSGGGSGGGSGGGSNSIALKNNTLWTGPKPEANCIIEYGKQNPDSKLTLILVKNGGIVNGYVTLMGASDYVNTLFKNKNVSINVELYFDATGHILPDSSSLKTDLELKYKQTADFSARGFMPSTTAYPFVLPNAGTHNENYIFGQCYYKASNGALFPLEVTVMLNKRLPDSRTSYVMTFLWSLNAGLAPETTQATLITSPFTFSYIREDD
On to B1, for which the Inhibition of infection in the presence of dimeric knob (JO-1 = 100%) (% (JO-1 = 100%)) in assay [1] is 5.3. The Inhibition of attachment in the presence of dimeric knob (JO-1 = 100%) (% (JO-1 = 100%)) in assay [2] was 45.

B2: dimeric Ad3 fiber knob mutant N186D (ligand)
chain: MKVSALKEKVSALKEKVSALKEKVSALKEKVSALKEGSGGGSGGGSGGGSNSIALKNNTLWTGPKPEANCIIEYGKQNPDSKLTLILVKNGGIVNGYVTLMGASDYVNTLFKDKNVSINVELYFDATGHILPDSSSLKTDLELKYKQTADFSARGFMPSTTAYPFVLPNAGTHNENYIFGQCYYKASDGALFPLEVTVMLNKRLPDSRTSYVMTFLWSLNAGLAPETTQATLITSPFTFSYIREDD
notes: Self-dimerizing form (JO-1 format)
In the case of B2, the “Inhibition of infection in the presence of dimeric knob (JO-1 = 100%)” value in assay [3] was 32.7 % (JO-1 = 100%). Also, the “Inhibition of attachment in the presence of dimeric knob (JO-1 = 100%)” value in assay [4] is 56.5 % (JO-1 = 100%).

B3: dimeric Ad3 fiber knob mutant D261N, L296R (ligand)
chain: MKVSALKEKVSALKEKVSALKEKVSALKEKVSALKEGSGGGSGGGSGGGSNSIALKNNTLWTGPKPEANCIIEYGKQNPDSKLTLILVKNGGIVNGYVTLMGASDYVNTLFKNKNVSINVELYFDATGHILPDSSSLKTDLELKYKQTADFSARGFMPSTTAYPFVLPNAGTHNENYIFGQCYYKASNGALFPLEVTVMLNKRLPDSRTSYVMTFLWSLNAGRAPETTQATLITSPFTFSYIREDD
notes: JO-1 format; Positions count on the full Ad3 fiber; also called combination of D261N and L296R
As to B3, the “Inhibition of infection in the presence of dimeric knob (JO-1 = 100%)” value in assay [3] was 1.5 % (JO-1 = 100%). Further, in assay [5], the Western blot Residual DSG2 binding (wtAd3 knob = 100%) was 7%. In addition, the “Inhibition of attachment in the presence of dimeric knob (JO-1 = 100%)” value in assay [4] was 20.1 % (JO-1 = 100%).

B4: dimeric Ad3 fiber knob mutant E299V (ligand)
chain: MKVSALKEKVSALKEKVSALKEKVSALKEKVSALKEGSGGGSGGGSGGGSNSIALKNNTLWTGPKPEANCIIEYGKQNPDSKLTLILVKNGGIVNGYVTLMGASDYVNTLFKNKNVSINVELYFDATGHILPDSSSLKTDLELKYKQTADFSARGFMPSTTAYPFVLPNAGTHNENYIFGQCYYKASDGALFPLEVTVMLNKRLPDSRTSYVMTFLWSLNAGLAPVTTQATLITSPFTFSYIREDD
notes: JO-1 format
Take B4: in assay [3], the “Inhibition of infection in the presence of dimeric knob (JO-1 = 100%)” value was 50.7 % (JO-1 = 100%). For the same molecule, the “Inhibition of attachment in the presence of dimeric knob (JO-1 = 100%)” value in assay [4] was 97.3 % (JO-1 = 100%).

B5: dimeric Ad3 fiber knob mutant V189G (ligand)
chain: MKVSALKEKVSALKEKVSALKEKVSALKEKVSALKEGSGGGSGGGSGGGSNSIALKNNTLWTGPKPEANCIIEYGKQNPDSKLTLILVKNGGIVNGYVTLMGASDYVNTLFKNKNGSINVELYFDATGHILPDSSSLKTDLELKYKQTADFSARGFMPSTTAYPFVLPNAGTHNENYIFGQCYYKASDGALFPLEVTVMLNKRLPDSRTSYVMTFLWSLNAGLAPETTQATLITSPFTFSYIREDD
notes: JO-1 format
For B5, the “Inhibition of infection in the presence of dimeric knob (JO-1 = 100%)” value in assay [3] was 54 % (JO-1 = 100%). Moreover, in assay [4], the “Inhibition of attachment in the presence of dimeric knob (JO-1 = 100%)” value was 81 % (JO-1 = 100%).

B6: dimeric Ad3 fiber knob mutant S190P (ligand)
chain: MKVSALKEKVSALKEKVSALKEKVSALKEKVSALKEGSGGGSGGGSGGGSNSIALKNNTLWTGPKPEANCIIEYGKQNPDSKLTLILVKNGGIVNGYVTLMGASDYVNTLFKNKNVPINVELYFDATGHILPDSSSLKTDLELKYKQTADFSARGFMPSTTAYPFVLPNAGTHNENYIFGQCYYKASDGALFPLEVTVMLNKRLPDSRTSYVMTFLWSLNAGLAPETTQATLITSPFTFSYIREDD
notes: JO-1 format; also called 5190P
In the case of B6, in assay [3], the “Inhibition of infection in the presence of dimeric knob (JO-1 = 100%)” value was 30.9 % (JO-1 = 100%). In addition, in assay [4], the “Inhibition of attachment in the presence of dimeric knob (JO-1 = 100%)” value was 73.4 % (JO-1 = 100%).

B7: dimeric Ad3 fiber knob mutant L296R (ligand)
chain: MKVSALKEKVSALKEKVSALKEKVSALKEKVSALKEGSGGGSGGGSGGGSNSIALKNNTLWTGPKPEANCIIEYGKQNPDSKLTLILVKNGGIVNGYVTLMGASDYVNTLFKNKNVSINVELYFDATGHILPDSSSLKTDLELKYKQTADFSARGFMPSTTAYPFVLPNAGTHNENYIFGQCYYKASDGALFPLEVTVMLNKRLPDSRTSYVMTFLWSLNAGRAPETTQATLITSPFTFSYIREDD
notes: JO-1 format
For B7, the “Inhibition of infection in the presence of dimeric knob (JO-1 = 100%)” value in assay [3] is 5.1 % (JO-1 = 100%). In addition, the “Inhibition of attachment in the presence of dimeric knob (JO-1 = 100%)” value in assay [4] was 73.7 % (JO-1 = 100%).

B8: dimeric Ad3 fiber knob mutant F265L (ligand)
chain: MKVSALKEKVSALKEKVSALKEKVSALKEKVSALKEGSGGGSGGGSGGGSNSIALKNNTLWTGPKPEANCIIEYGKQNPDSKLTLILVKNGGIVNGYVTLMGASDYVNTLFKNKNVSINVELYFDATGHILPDSSSLKTDLELKYKQTADFSARGFMPSTTAYPFVLPNAGTHNENYIFGQCYYKASDGALLPLEVTVMLNKRLPDSRTSYVMTFLWSLNAGLAPETTQATLITSPFTFSYIREDD
notes: JO-1 format
For the molecule B8, the “Inhibition of infection in the presence of dimeric knob (JO-1 = 100%)” value in assay [3] was 17.6 % (JO-1 = 100%). Further, the “Inhibition of attachment in the presence of dimeric knob (JO-1 = 100%)” value in assay [4] is 55.6 % (JO-1 = 100%).

B9: Ad3-S4/Kn (ligand, human adenovirus serotype 3, UniProt P04501 77-319, looked up)
chain: SLEENIKVNTPLTKSNHSINLPIGNGLQIEQNKLCSKLGNGLTFDSSNSIALKNNTLWTGPKPEANCIIEYGKQNPDSKLTLILVKNGGIVNGYVTLMGASDYVNTLFKNKNVSINVELYFDATGHILPDSSSLKTDLELKYKQTADFSARGFMPSTTAYPFVLPNAGTHNENYIFGQCYYKASDGALFPLEVTVMLNKRLPDSRTSYVMTFLWSLNAGLAPETTQATLITSPFTFSYIREDD
notes: domain: fiber knob with shaft motifs (S4)
For the molecule B9, the binding result with soluble CD46 is “no binding”.

B10: Ad3-S2/Kn (ligand, human adenovirus serotype 3, UniProt P04501 108-319, looked up)
chain: NKLCSKLGNGLTFDSSNSIALKNNTLWTGPKPEANCIIEYGKQNPDSKLTLILVKNGGIVNGYVTLMGASDYVNTLFKNKNVSINVELYFDATGHILPDSSSLKTDLELKYKQTADFSARGFMPSTTAYPFVLPNAGTHNENYIFGQCYYKASDGALFPLEVTVMLNKRLPDSRTSYVMTFLWSLNAGLAPETTQATLITSPFTFSYIREDD
notes: domain: fiber knob with shaft motifs (S2)
For B10, the binding result in the assay with soluble CD46 was “no binding”.

B11: Ad3-S3/Kn (ligand, human adenovirus serotype 3, UniProt P04501 94-319, looked up)
chain: SINLPIGNGLQIEQNKLCSKLGNGLTFDSSNSIALKNNTLWTGPKPEANCIIEYGKQNPDSKLTLILVKNGGIVNGYVTLMGASDYVNTLFKNKNVSINVELYFDATGHILPDSSSLKTDLELKYKQTADFSARGFMPSTTAYPFVLPNAGTHNENYIFGQCYYKASDGALFPLEVTVMLNKRLPDSRTSYVMTFLWSLNAGLAPETTQATLITSPFTFSYIREDD
notes: domain: fiber knob with shaft motifs (S3)
As for B11, the binding result with soluble CD46 was “no binding”.

B12: Ad3-S5/Kn (ligand, human adenovirus serotype 3, UniProt P04501 60-319, looked up)
chain: SLQLKVGSGLTVDTTDGSLEENIKVNTPLTKSNHSINLPIGNGLQIEQNKLCSKLGNGLTFDSSNSIALKNNTLWTGPKPEANCIIEYGKQNPDSKLTLILVKNGGIVNGYVTLMGASDYVNTLFKNKNVSINVELYFDATGHILPDSSSLKTDLELKYKQTADFSARGFMPSTTAYPFVLPNAGTHNENYIFGQCYYKASDGALFPLEVTVMLNKRLPDSRTSYVMTFLWSLNAGLAPETTQATLITSPFTFSYIREDD
notes: domain: fiber knob with shaft motifs (S5)
In the case of B12, the binding result with soluble CD46 is “no binding”.
